Assay results from PMC2764089.

Molecular target: Spc105p-PrA (S. cerevisiae) (UniProt P53148)
Experiment: SEC + other: glycerol-gradient velocity ultracentrifugation; whole cell extracts of wild-type strains expressing Spc105p-PrA or Kre28p-PrA (each fusion in its own strain); 10-40% glycerol gradients and HiPrep 16/60 Sephacryl S-500 HR column; fractions found by western blotting with anti-PrA

UniProt P53148, sequence (P53148 whole entry, the tested form may be a part): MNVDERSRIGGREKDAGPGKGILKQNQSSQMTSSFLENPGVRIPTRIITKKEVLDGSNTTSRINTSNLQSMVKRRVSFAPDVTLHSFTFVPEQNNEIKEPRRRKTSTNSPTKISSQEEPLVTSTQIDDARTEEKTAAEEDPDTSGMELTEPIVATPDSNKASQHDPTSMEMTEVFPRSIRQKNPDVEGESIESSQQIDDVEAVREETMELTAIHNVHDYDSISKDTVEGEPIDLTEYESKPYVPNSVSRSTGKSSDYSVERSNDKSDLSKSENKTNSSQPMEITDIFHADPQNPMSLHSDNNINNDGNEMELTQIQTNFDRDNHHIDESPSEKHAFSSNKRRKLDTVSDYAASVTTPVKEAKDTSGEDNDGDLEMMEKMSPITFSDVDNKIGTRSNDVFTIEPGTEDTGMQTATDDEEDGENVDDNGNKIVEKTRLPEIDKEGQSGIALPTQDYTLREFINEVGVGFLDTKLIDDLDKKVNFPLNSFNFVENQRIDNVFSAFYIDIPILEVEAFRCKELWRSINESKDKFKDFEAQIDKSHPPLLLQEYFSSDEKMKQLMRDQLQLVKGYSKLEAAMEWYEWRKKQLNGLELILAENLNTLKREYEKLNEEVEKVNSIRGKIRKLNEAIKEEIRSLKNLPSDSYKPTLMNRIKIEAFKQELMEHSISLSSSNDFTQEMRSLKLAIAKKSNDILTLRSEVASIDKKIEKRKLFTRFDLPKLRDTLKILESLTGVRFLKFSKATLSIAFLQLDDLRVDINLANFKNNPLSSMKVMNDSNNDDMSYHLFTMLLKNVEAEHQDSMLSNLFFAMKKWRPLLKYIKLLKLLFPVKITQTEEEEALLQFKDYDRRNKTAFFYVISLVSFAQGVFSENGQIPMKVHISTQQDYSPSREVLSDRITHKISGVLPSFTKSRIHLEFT

- stoichiometry N (Kre28p per Spc105p): 2
Substance: Kre28p-PrA (from UniProt Q04431 1-385) (natural protein)
